± gives the uncertainty stated by the source.

The text below walks through data of the supplement of paper PMC12042874.

The nature of the data set: amyloid nucleation score (Sup35N fusion, yeast selection) (log enrichment); library NNK3; higher = more nucleation; inactive = no reads after selection. Put shortly:
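Growth for 7 days at 30°C on medium lacking adenine and uracil followed a 24-hour induction with 100 μM copper sulfate of psi-negative yeast expressing peptides of 20 random codons fused to Sup35N. Input and output plasmid inserts were sequenced with Illumina, and sequences with under 100 input reads were excluded. Nucleation score is the DiMSum log enrichment of output over input reads, centred on the mode score of non-aggregating sequences.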
Take LDLFSRNSETRAKSDRVWWT: the amyloid nucleation score entry was “inactive”.
Regarding LDRFENINRL, the amyloid nucleation score result was “inactive”.
Take LDSFATRGYSWSLGIIVMKI: the amyloid nucleation score entry was “inactive”.
As for LDSYVDFLTYFSQKGSRHHL, the amyloid nucleation score result is “inactive”.
Consider LEASESGIVEVPQPNYCITP, for which the amyloid nucleation score entry was “inactive”.
As for LECILADIASCIQPRAYCIS, the entry is “inactive”.
As for LEFRNHPMSYYTLVGQCVRK, the figure is -0.372 ± 0.8; as for LEGALRQDSCHKVPKLGQPV, “inactive”; as for LEKELRLCSKAWLSSQISIV, “inactive”.
For the substance LELLRTERKRMKCLKPVLRV, the amyloid nucleation score entry was “inactive”.
Take LESSVMLLKRRIILVLCLHG: the amyloid nucleation score entry is “inactive”.
As for LETLVKPLELGSYFDFCCWA, the amyloid nucleation score result was “inactive”.
As for LEVWSRRYWCHRLFNSIAMM, the entry is “inactive”; as for LFAIDNWVVKDSLVVWCEGR, “inactive”; as for LFCSYNRRGAHLAGCAR, “inactive”.
Regarding LFCVPWVVISPHHSIHRIWV, the amyloid nucleation score entry was “inactive”.
Consider LFDHYWLGSWIVENSYPSGE, for which the amyloid nucleation score entry was “inactive”.
The substance LFEDKCGNPWRNY gave an amyloid nucleation score of -0.126 ± 0.88.
On to LFFYNWVICRSNRYHGL, for which the amyloid nucleation score result was “inactive”.
As to LFGFQNDCYMDNRYW, the amyloid nucleation score result is “inactive”.
As for LFGYDSISLINRGCVGGFNV, the entry is “inactive”.
Consider LFHNCHGFFHTNNVPFVRWP, for which the amyloid nucleation score result was “inactive”.
With LFLGLVLAHPPDRVRLSTVL, the amyloid nucleation score result was “inactive”.
Consider LFLLNVAYCNCFT, for which the amyloid nucleation score is 3.27 ± 0.059.
As for LFLMWRTYYVNILESSCVVC, the entry is “inactive”.
Consider LFLWKTTMTPGLHRSSVVGR, for which the amyloid nucleation score result is “inactive”.
Turning to LFLYQLLSGHC, the amyloid nucleation score result is “inactive”.
On to LFMEDVLRFGLLYLI, for which the amyloid nucleation score entry was “inactive”.
The value for LFMKSVEMWNRGYLSITCMC was “inactive”; that for LFMLVAE was “inactive”.
As to LFNLGICYTISNYSLSLEQS, the amyloid nucleation score amounted to 2.1 ± 0.086.
As to LFRDKDVDVVSSN, the amyloid nucleation score entry is “inactive”.
For LFSLCWRCTLLKLYCPNWCY, the amyloid nucleation score result is “inactive”.
LFYMLPIIVFAPVLMAWLSF: the amyloid nucleation score result is “inactive”.
In the case of LFYSRGHLSGLGLGVMAPFI, the amyloid nucleation score entry is “inactive”.
On to LFYSTARCEKSRCVMGRMRG, for which the amyloid nucleation score result is “inactive”.
As for LGAWVGVFMLKQ, the amyloid nucleation score result was “inactive”.
For the substance LGDNLEGNIGLLL, the amyloid nucleation score result was “inactive”.
With LGGNMTCLSQDYLRTSKELL, the amyloid nucleation score entry was “inactive”.
As to LGKSKFMAGQFLFCYSSVVL, the amyloid nucleation score stood at 1.58 ± 0.12.
As for LGLILIVLLVRPVFDSKRLD, the amyloid nucleation score result is “inactive”.
As for LGPVIS, the figure is -0.46 ± 1.7; as for LGVALVTICVLRECGKILYI, -0.107 ± 0.68.
Substance LGYLRFVLIYQTCCQLTKSP yielded an amyloid nucleation score of -0.617 ± 0.6.
The value for LGYPCFSKWFVYSRSIGLEG was “inactive”; that for LHASMLLLRNNRSRS was “inactive”; that for LHGHLGWWNVLDCPICLNFI was “inactive”.
Take LHHAVVREWRFQKNVCRQLR: the amyloid nucleation score result was “inactive”.
On to LHICTLYREVVVAAQCS, for which the amyloid nucleation score entry was “inactive”.
LHLGMRLV: the amyloid nucleation score entry is “inactive”.
For the substance LHLMWMPVTCGEVALCDGQS, the amyloid nucleation score entry is “inactive”.
Turning to LHLYNVDVNLIGPQVY, the amyloid nucleation score result is “inactive”.
Regarding LHMCNS, the amyloid nucleation score result was “inactive”.
Consider LHMEG, for which the amyloid nucleation score was -0.611 ± 1.1.
As for LHNCPVDGWAAVSRSVVGRE, the entry is “inactive”; as for LHSFLRCDCSIARF, “inactive”; as for LHSLKHNCVFSAIVGHCFQC, 2.11 ± 0.098.
The value for LHTICHMLLIH was “inactive”.
Consider LHTSTTPKTMKRRSQLSNQK, for which the amyloid nucleation score entry is “inactive”.
For the substance LHVPGLIYF, the amyloid nucleation score result is “inactive”.
Regarding LIAMICSLGTYFLIVAFELI, the amyloid nucleation score entry is “inactive”.
As for LIDNRRFRHLLTRNVFVSHH, the amyloid nucleation score result was “inactive”.
As for LILAQVLWFGFETGGKLETM, the amyloid nucleation score result is “inactive”.
The value for LIPASLKADRQCAHSRYSR was “inactive”.
Consider LIRCCFPHMSGVLFMKFTLT, for which the amyloid nucleation score entry was “inactive”.
Turning to LIRVGKDRVVSMEEVRCLLR, the amyloid nucleation score entry is “inactive”.
In the case of LISINLVQTSPRPRHYYLCS, the amyloid nucleation score entry is “inactive”.
For LISNAQA, the amyloid nucleation score result was “inactive”.
For the substance LITGLDLPGIWHTVYSYYSV, the amyloid nucleation score result was “inactive”.
LIWYRNDEWYSFLWMVYCSS: the amyloid nucleation score entry is “inactive”.
For the substance LKAYKFMSSNQHTRTAFLGD, the amyloid nucleation score entry was “inactive”.
As for LKLRSRITNINILDVRYWIC, the entry is “inactive”; as for LKLTHD, “inactive”; as for LKNHNLVTKHYYARLMIGLW, “inactive”.
As to LKRVDEVVIDPLYREGYTER, the amyloid nucleation score entry is “inactive”.
LKSGVFFG: the amyloid nucleation score result is “inactive”.
For the substance LKTCFIP, the amyloid nucleation score result was “inactive”.
As for LKTSNRR, the amyloid nucleation score entry was “inactive”.
As for LKVNIWLPGRPFTILWSPRR, the entry is “inactive”; as for LKYIDTSFMLGFSIVSLRFQ, “inactive”.
Take LKYLCYHRQCSLMPRCWMDR: the amyloid nucleation score entry was “inactive”.
LKYSHEHGFFSYYACWCQQL: the amyloid nucleation score entry was “inactive”.
For LLCFVDVSYVHNA, the amyloid nucleation score worked out at 0.834 ± 0.23.
In the case of LLCSKARSCRVDRMKRGGWV, the amyloid nucleation score result was “inactive”.
With LLDSVNGHCYMCLTIMGVRN, the amyloid nucleation score entry was “inactive”.
In the case of LLFCVLFATPINCISLIMSE, the amyloid nucleation score entry is “inactive”.
LLFFLAGVSSHIMYLVYARC: the amyloid nucleation score entry is “inactive”.
As to LLFVVQWWFNRFFE, the amyloid nucleation score result was “inactive”.
The value for LLIIVYLVWCALIRRGTQPR was “inactive”; that for LLISGCRSFMMAFSGCL was “inactive”; that for LLKEFIL was “inactive”.
Regarding LLKHMSLFVLRSSNR, the amyloid nucleation score entry is “inactive”.
LLLRLLTMMVFNCILVDYGL: the amyloid nucleation score result was “inactive”.
LLLVKSTI showed an amyloid nucleation score of -0.176 ± 0.56.
As to LLLVSLELTRLNSHEWVYVI, the amyloid nucleation score entry was “inactive”.
